Results: patent US20260265316A1, “IMMUNOTHERAPEUTIC METHODS, COMPOUNDS, AND COMPOSITIONS FOR TREATING OR PREVENTING CELIAC DISEASE” (DBV Technologies, priority 2023, published 2026)
Changes are numbered by the printed parent chain.

B1: QLQPFPQPELPYPQPELPYPQPELPYPQPQPGPRRKKPQPEQPEQPFPEQPQGARRKKPQQPFPQPEQPFPWQPQGPKKPSGEGSFQPSQENPQ (peptide)
chain: QLQPFPQPELPYPQPELPYPQPELPYPQPQPGPRRKKPQPEQPEQPFPEQPQGARRKKPQQPFPQPEQPFPWQPQGPKKPSGEGSFQPSQENPQ
B2: QLQPFPQPELPYPQPELPYPQPELPYPQPQPGPRRKKPQPEQPEQPFPEQPQGCRRKKPQQPFPQPEQPFPWQPQGPKKPSGEGSFQPSQENPQ (peptide)
chain: B1 chain with A54C
B3: QLQPFPQPELPYPQPELPYPQPELPYPQPQPKKKKPQPEQPEQPFPEQPQKKKKPQQPFPQPEQPFPWQPQKKKKPSGEGSFQPSQENPQ (peptide)
chain: QLQPFPQPELPYPQPELPYPQPELPYPQPQPKKKKPQPEQPEQPFPEQPQKKKKPQQPFPQPEQPFPWQPQKKKKPSGEGSFQPSQENPQ

Columns and labels:
Assay type in all cases: cell-based, human
[1] = system: circulating gluten-specific CD4+ T cells in whole blood of HLA-DQ8+ CeD patients; test: Whole blood IL-2 cytokine release assay, HLA-DQ8+ CeD participants; settings: for IL-2 response (in words): HLA-DQ8+ donors, whole blood; for IL-2 response (in words) / mean IL-2 titer: 24 hours; for mean IL-2 titer fold higher than Nex01/02 peptide mix / mean IL-2 titer: HLA-DQ8+ participants, 10 μM
Text: FIGS. 11A-11B are graphs depicting the evaluation of the ability of various molarities of three gliadin polypeptides (Cv6, Av6, and 4K), two peptide mixes containing either the four individual building blocks BB1, BB2a, BB3a and BB4a (BB1-4a) or two Nexvax2 peptides (Nex01/02), and six individual building blocks or peptides (BB1, BB2a, BB3a, BB4a, Nex01, and Nex02) to restimulate gluten-specific T cell collected from HLA-DQ8+ CeD patients using a whole blood IL-2 release assay. The whole blood cytokine release assay was performed in four HLA-DQ8+ participants with biopsy-confirmed celiac disease as described in FIG. 10. Data are expressed in femtogram/mL of plasma (A), or as fold change from the negative control (PBS 1×) (B). Symbols represent individual participants (patient ID); bars represent the median+interquartile range of individual values.
The overarching objective of this assay was to validate that the polypeptide constructs (Cv6, Av6, and 4K) can be recognized and processed by human APCs, and they can then promote the activation of gluten-specific effector/memory CD4^+ T cells in CeD patients. A Cytokine Release Assay (CRA) was used (previously described in the literature: Anderson et al., Clinical & Experimental Immunology, 2021 June; 204(3): 321-334; and in Hardy et al., Frontiers in Immunology, 2021, Vol. 12, Article 661662, the entire contents of each of which are incorporated by reference herein). This assay quantifies IL-2 produced by circulating gluten-specific CD4^+ T cells present in the blood of CeD patients upon in vitro stimulation with gluten-derived antigens. Due to the extremely high sensitivity of this CRA, no oral exposure to gluten was required prior to blood sampling.
Informed consent was obtained from all subjects prior to blood collection.
Unfractionated blood (225 μL per well of a 96-well plate) was then rapidly restimulated for 24 hours with each of three of the polypeptide constructs provided herein (SEQ ID NO:23 wherein X is C [Cv6, i.e., SEQ ID NO:49], SEQ ID NO:23 wherein X is A [Av6, i.e., SEQ ID NO:50], and SEQ ID NO:46 [4K]) and with each of four individual building blocks (SEQ ID NO:15 wherein Z is E [BB1], SEQ ID NO:16 wherein Z is E [BB2a], SEQ ID NO:20 wherein Z is E [BB3a], and SEQ ID NO:18 wherein Z is E [BB4a]). The concentrations of the polypeptide constructs ranged from 0.5 to 10 micromolar, and the concentration for each individual building block was 10 micromolar. […] These two peptides comprise an N-terminal pyroglutamate and a C-terminal amide. Nex01 and Nex02 were the two gliadin peptides used in the Nexvax2 immunotherapeutic vaccine that was intended to restore immune tolerance to gluten in HLA-DQ2.5+ CeD patients. A positive control consisted of blood cells stimulated with phytohemagglutinin (PHA) (10 μg/mL) which activates all T cells regardless of their antigen specificity (i.e., a polyclonal activator). Negative controls consisted of cells treated with buffer only (PBS 1×).
After incubation for 24 hours at 37° C. and 5% CO2, plasma was separated from whole blood by centrifugation. Plasma was collected from each well and replicates (n=6 replicates per test) pooled. All plasma samples were frozen at −80° C. until analysis. Single plasma aliquots (100 μL) were thawed and analyzed in duplicate using MSD IL-2 S-plex according to the manufacturer's instructions.

[2] = system: 3072 1.26 (DQ2.5-glia-α1a specific) T cell clone; test: IFN-γ ELISpot T cell clone assay; settings: 10 μM, 3072 1.26 clone
[3] = system: 3007.28 (DQ2.5-glia-α2 specific) T cell clone; test: IFN-γ ELISpot T cell clone assay; settings: 10 μM, 3007.28 clone
[4] = system: 0482 1.2 clone (DQ8-glia-α-specific); test: IFN-γ ELISpot T cell clone assay; settings: 10 μM
Experimental: (§1) FIGS. 12A-12E are graphs depicting the evaluation of the ability of gliadin polypeptides (Cv6, Av6, and 4K) to reactivate gluten-specific T cell clones isolated from CeD patients and specific for a selection of key gliadin epitopes (i.e., DQ2.5-glia-α1a (A), DQ2.5-glia-α2 (B), DQ2.5-glia-ω1 […], DQ2.5-glia-ω2 (D), and DQ8-glia-α1 […]), by IFN-γ ELISpot assay. The three gliadin polypeptide constructs Cv6, Av6, and 4K were incubated overnight at three different molarities ([…]) with irradiated PBMCs, and five T-cell clones originally isolated from HLA-DQ2^+ or HLA-DQ8^+ CeD patients. T cells clones were specific for either DQ2.5-glia-α1a (A), DQ2.5-glia-α2 (B), DQ2.5-glia-ω1 (C), DQ2.5-glia-ω2 (D) or DQ8-glia-α1 (E) epitopes. Spots were detected with IFN-γ-biotinylated antibody and streptavidin-ALP complex and counted using an AID ELISpot reader. Data are expressed as mean Spot Forming Units (SFU) per well of 3 replicate wells+SD.
(§2) For that purpose, five individual CD4^+ T cell clones specific for a selection of key gliadin epitopes have been used. The experimental readout was the enumeration of IFN-γ producing T-cells (Th1 cells) by ELISpot, as previously described: Hardy M Y, et al., J Autoimmun 2015; 56:56-65; Anderson et al., Clinical & Experimental Immunology, 2021, Issue 3, June 2021, Pages 321-334, the entire contents of each of which are incorporated by reference herein.
(§3) For this in vitro assay, irradiated peripheral blood mononuclear cells (PBMCs) isolated from the blood of healthy donors matching for HLA-DQ2.5 or HLA-DQ8 were used as a source of APCs.
(§4) As a positive control for antigen-specific T cell stimulation, the cognate gliadin-derived immunogenic peptide known to activate each CD4^+ T cell clone was used, as described in the literature (Sollid et al., Immunogenetics, 2020 February; 72(1-2):85-88; Tye-Din et al., Sci Transl Med, 2010, Vol. 2, Issue 41, 41-51, the entire contents of each of which are incorporated by reference herein). Negative controls consisted of cells treated with a cocktail of four irrelevant peptides of the following sequence: PFPLPQP (SEQ ID NO:87), PQYQPEQ (SEQ ID NO:88), PFEPQPL (SEQ ID NO:89), and PQSYPEQ (SEQ ID NO:90).

[5] = system: 3177 2.27 (DQ2.5-glia-ω1 specific) T cell clone; test: IFN-γ ELISpot T cell clone assay; settings: 10 μM, 3177 2.27 clone
Experimental: as §1, §2, §3, §4

[6] = system: 0177 2.61 (DQ2.5-glia-ω2 specific) T cell clone; test: IFN-γ ELISpot T cell clone assay; settings: 10 μM, 0177 2.61 clone

| Molecule | IL-2 response (in words) [1] | mean IL-2 titer fold higher than Nex01/02 peptide mix [1] [fold] | mean IL-2 titer [1] [fg/mL] | mean spot forming units (IFN-γ ELISpot) [2] | mean spot forming units (IFN-γ ELISpot) [3] | mean spot forming units (IFN-γ ELISpot) [4] | mean spot forming units (IFN-γ ELISpot) [5] | mean spot forming units (IFN-γ ELISpot) [6] |
| --- | --- | --- | --- | --- | --- | --- | --- | --- |
| H-PSGEGSFQPSQENPQ-NH2 [BB4a] | potent IL-2 responses |  |  |  |  |  |  |  |
| H-PQPEQPEQPFPEQPQ-NH2 [BB2a] | potent IL-2 responses |  |  |  |  |  |  |  |
| B1 |  | 9 | 3695 | 183 | 122 | 201 | 21 | 12 |
| B2 |  | 11 | 4528 | 159 | 117 | 173 | 15 | 16 |
| B3 |  | 15 | 6300 | 177 | 109 | 175 | 14 | 11 |
